Laboratory results reported in the supplement of paper PMC12764529.
± gives the half width of the 95% confidence interval.

Tests used:
[1] = folding stability dG unfold from trypsin proteolysis; higher = more stable
In short: (§1)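 Unfolding free energy was derived, per protease or combined, by relating Bayesian-fitted K50 values from sequencing counts to a sequence-predicted unfolded-state K50 and a shared folded-state K50. The underlying digests exposed cysteine-free mini-proteins under 80 residues, in a PA-tagged cDNA display construct, to trypsin and chymotrypsin at 11 threefold-diluted concentrations and to a no-protease condition. A filter kept only designs with AlphaFold2 dimer inter-PAE above 15.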

[2] = folding stability dG unfold from chymotrypsin proteolysis; higher = more stable
In short: as §1

[3] = folding stability dG unfold (combined trypsin and chymotrypsin); higher = more stable
In short: as §1

Row | Sequence | folding stability dG unfold [1] [kcal/mol] | folding stability dG unfold [2] [kcal/mol] | folding stability dG unfold [3] [kcal/mol]
1 | SLGPLVELAELFPDFEPLGVEEEPLEDGGRLLRVIGRIPEIGAYLLIEVRLPPGGGIESIRAEWVPEDELSA [r9_274_TrMRF] | 3.4 ± 0.12 | 4.28 ± 0.071 | 3.95 ± 0.11
2 | SAGGSAMTIEIEAPVPAGVEVDATALFVTPDGYLYLAEVRSVGPGWARITIPVYRFDDNLDDPDFLSAGGSA [r15_909_TrMRF] | 2.04 ± 0.045 | 2.19 ± 0.042 | 2.17 ± 0.051
3 | SAGGSAVIEFELELRTRPDGSVEEEEIIAEARELIEAIPEAENAEILEIRREAFPDGTVRYHVRVRVPSAGG [r13_462_TrMRF] | 3.46 ± 0.072 | 3.01 ± 0.036 | 3.19 ± 0.072
4 | SAGGMPKYFAEVDTEPHGDKVKITLRIRDPNGVERELTFELPLSEVIKLLKELPEEFEVFELKFSDESAGGS [r16_298_TrMRF] | 2.05 ± 0.042 | 3.12 ± 0.034 | 2.71 ± 0.14
5 | SAGGSAGGKPKPVLRTFEVRDPATGELYKVELVVLDDGSVRALVTRRDGRKREFTFDAPASLILSAGGSAGG [r6_588_TrMRF] | 1.59 ± 0.019 | 2.08 ± 0.042 | 1.88 ± 0.047
6 | SMKYRITLTITKGDEDIVVEIETESEEEAKEKFKKAISPELLKALPEDAKVEITVEPEPLVIPEPGVPLPSA [r9_111_JUSTAS] | 0.465 ± 0.038 | 1.22 ± 0.12 | 0.995 ± 0.062
7 | SAGGMKLEFEAEITVPLPVPTPEGGLEFVPITEPIRIEAEHPEELEIALKEAELETIERALKELGIESAGGS [r16_339_TrMRF] | -0.594 ± 0.19 | -0.723 ± 0.16 | -0.845 ± 0.59
8 | SAGGSAGGSAGVIVTPEGDRIVTYDPNTGSVTVTPLDAAGNPLTTTVVAPNGPVVTVTELSAGGSAGGSAGG [r17_385_JUSTAS] | 1.66 ± 0.055 | 0.871 ± 0.018 | 1.22 ± 0.034
9 | SENPVLKNRPLPVVGTTERTSVAKPGESLDVKELPSNGIVATTPDGSTVGITVTVDANGNVLSLEIKPDPSA [r9_1195_JUSTAS] | 0.00583 ± 0.068 | 0.272 ± 0.069 | 0.164 ± 0.12
10 | SAGGSAGGNEIAEKLKKKYPNIKIKSVKINPKEGKIEIDLGFPKDAKPETIKKIEKEIEELAKKSAGGSAGG [r6_97_TrMRF] | 0.578 ± 0.056 | 0.442 ± 0.14 | 0.646 ± 0.34
11 | SVNPATQVVTVTREVTYPVPPSQGPISEEEAREAVEAELAARGWTLREVRVEYEGDTVTVTAVAERPAAASA [r9_1134_JUSTAS] | 1.04 ± 0.018 | 1.13 ± 0.053 | 1.11 ± 0.038
12 | SAGGSAGGSMDLKNAKIISIEETENEIKITIEVDGKLYTITISKEEAEKLKKLLEDLNIEIIPSAGGSAGGS [r12_604_TrROS_Hall] | 4.14 ± 0.23 | 4.3 ± 0.079 | 4.27 ± 0.14
13 | SAGMKPLSDPEAQELAKEVAEKGYLVYTLKYPDGTVITVVSKSEEEVEALLEKSPYPIKEIVIIPPEKPSAG [r5_481_JUSTAS] | 1.16 ± 0.082 | 1.74 ± 0.098 | 1.48 ± 0.12
14 | SAGGSAGIEVHPEGTVRIEVGGRSLTVTPADAVDVTQEGDKIVVTITRRDADGTPVGTLPVTVELASAGGSA [r15_424_JUSTAS] | -0.75 ± 0.088 | 0.835 ± 0.018 | 0.52 ± 0.045
15 | SAGGSAMTVKVRLRVRRRVFNEDGELVAEEELELEVEVEVRPPPPPPPPPLTAEELAEKLGLEPEDSAGGSA [r15_572_TrROS_Hall] | 2.52 ± 0.093 | 3.37 ± 0.074 | 3.19 ± 0.39
16 | SAGGSAGGSAGGLSPGDEIKIRIMIFYRDPGSGNMRPIQPFPITIKIEPPPPKPKDPNNNSAGGSAGGSAGG [r7_522_TrROS] | 2.27 ± 0.1 | 3.82 ± 0.085 | 3.08 ± 0.12
17 | SAGGSAGGSAGGMPVLVNIELPIPGTNETLTLEVEAEGPGGEEVEKEAQETAEKVLEESSAGGSAGGSAGGS [r10_863_JUSTAS] | 1.58 ± 0.1 | 1.79 ± 0.068 | 1.72 ± 0.11
18 | SAGMKITVKAVLKKGEKEYEVEFEADSLEEIIGAILELYEKLNFDELRVKIKIGDKEYEIELPFLIPDESAG [r5_946_TrMRF] | 4.28 ± 0.41 | 4.2 ± 0.68 | 4.24 ± 0.94
19 | SAGGSAGGSAGKPKVKKITLKNPATGETVEAEVVEVDGYLVVRVRNKDDPEKTETFVFKLSAGGSAGGSAGG [r17_73_TrROS_Hall] | 2.17 ± 0.051 | 2.58 ± 0.049 | 2.48 ± 0.12
20 | SAGGSAGGSAGGMIKVTFKIPGKNETIEIDFDSEEELEEKFKELREKLGYNIEVVEIEESAGGSAGGSAGGS [r10_1087_JUSTAS] | 2.19 ± 0.19 | 2.19 ± 0.12 | 1.92 ± 0.2
21 | SAGGSAGGKIKVEYNPENNMYRVTIKLPGGKIKIYIPPGQTEEQGEKNVKHMAKELLKKNGIKISAGGSAGG [r6_679_TrROS] | -0.0228 ± 0.46 | 1.47 ± 0.14 | 1.17 ± 0.44
